{"source": "paper PMC9674263", "about": "(Proceedings of the National Academy of Sciences of the …, 2022)", "proteins": {"B1": {"name": "endogenous PLOD2 of HCC38 cells (enzyme, human (endogenous in HCC38), UniProt O00469 26-737, looked up)", "chain": "ADSEKPSSIPTDKLLVITVATKESDGFHRFMQSAKYFNYTVKVLGQGEEWRGGDGINSIGGGQKVRLMKEVMEHYADQDDLVVMFTECFDVIFAGGPEEVLKKFQKANHKVVFAADGILWPDKRLADKYPVVHIGKRYLNSGGFIGYAPYVNRIVQQWNLQDNDDDQLFYTKVYIDPLKREAINITLDHKCKIFQTLNGAVDEVVLKFENGKARAKNTFYETLPVAINGNGPTKILLNYFGNYVPNSWTQDNGCTLCEFDTVDLSAVDVHPNVSIGVFIEQPTPFLPRFLDILLTLDYPKEALKLFIHNKEVYHEKDIKVFFDKAKHEIKTIKIVGPEENLSQAEARNMGMDFCRQDEKCDYYFSVDADVVLTNPRTLKILIEQNRKIIAPLVTRHGKLWSNFWGALSPDGYYARSEDYVDIVQGNRVGVWNVPYMANVYLIKGKTLRSEMNERNYFVRDKLDPDMALCRNAREMGVFMYISNRHEFGRLLSTANYNTSHYNNDLWQIFENPVDWKEKYINRDYSKIFTENIVEQPCPDVFWFPIFSEKACDELVEEMEHYGKWSGGKHHDSRISGGYENVPTDDIHMKQVDLENVWLHFIREFIAPVTLKVFAGYYTKGFALLNFVVKYSPERQRSLRPHHDASTFTINIALNNVGEDFQGGGCKFLRYNCSIESPRKGWSFMHPGRLTHLHEGLPVKNGTRYIAVSFIDP"}}, "target": "the molecule itself", "test": "native gel or EMSA", "data": [{"protein": "B1", "values": [{"measurement": "stoichiometry N", "value": 2}]}]}
